The labels stand for the following.
B1: Relaxin-3 (Homo sapiens), Q8WXF3 (parent)
chain: MARYMLLLLLAVWVLTGELWPGAEARAAPYGVRLCGREFIRAVIFTCGGSRWRRSDILAHEAMGDTFPDADADEDSLAGELDEAMGSSEWLALTKSPQAFYRGRPSWQGTPGVLRGSRDVLAGLSSSCCKWGCSKSEISSLC

The variants in one experiment derive from B1. The settings on record: with rl3r2_human RXFP4, Q8TDU9.
Sequence of rl3r2_human RXFP4, Q8TDU9 (Q8TDU9 whole entry): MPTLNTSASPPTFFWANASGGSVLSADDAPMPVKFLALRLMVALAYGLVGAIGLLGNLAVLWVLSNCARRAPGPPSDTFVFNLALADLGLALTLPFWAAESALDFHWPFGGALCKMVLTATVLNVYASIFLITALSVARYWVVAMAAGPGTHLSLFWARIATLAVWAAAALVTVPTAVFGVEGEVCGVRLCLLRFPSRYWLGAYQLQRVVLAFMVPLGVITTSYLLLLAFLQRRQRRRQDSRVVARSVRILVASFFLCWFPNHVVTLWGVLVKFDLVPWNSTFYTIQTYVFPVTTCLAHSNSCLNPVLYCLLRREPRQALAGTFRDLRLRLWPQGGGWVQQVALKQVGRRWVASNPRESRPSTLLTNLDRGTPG
In the case of MARYMLLLLLAVWVLTGELWPGAEARAAPYGVRLCGREFIRAVIFTCGGSEWRRSDILAHEAMGDTFPDADADEDSLAGELDEAMGSSEWLALTKSPQAFYRGRPSWQGTPGVLRGSRDVLAGLSSSCCKWGCSKSEISSLC [R51E], the “effect of a mutation on the interaction” value is reported as “decreasing interaction”.

Variants of B1 are the subject of another experiment. Conditions: with rl3r2_human RXFP4, Q8TDU9. The source holds these as a separate data set.
On to MARYMLLLLLAVWVLTGELWPGAEARAAPYGVRLCGREFIRAVIFTCGGSEWRRSDILAHEAMGDTFPDADADEDSLAGELDEAMGSSEWLALTKSPQAFYRGRPSWQGTPGVLRGSRDVLAGLSSSCCKWGCSKSEISSLC [R51E], for which the “effect of a mutation on the interaction” value was “increasing interaction”.

In a further experiment the parent is B1. The settings on record: with rl3r2_human RXFP4, Q8TDU9. The source holds these as a separate data set.
As for MARYMLLLLLAVWVLTGELWPGAEARAAPYGVRLCGEEFIRAVIFTCGGSRWRRSDILAHEAMGDTFPDADADEDSLAGELDEAMGSSEWLALTKSPQAFYRGRPSWQGTPGVLRGSRDVLAGLSSSCCKWGCSKSEISSLC [R37E], the “effect of a mutation on the interaction” value is “decreasing interaction”.

The next experiment covers variants of B1. The settings on record: with rl3r2_human RXFP4, Q8TDU9. The source holds these as a separate data set.
As for MARYMLLLLLAVWVLTGELWPGAEARAAPYGVRLCGEEFIRAVIFTCGGSRWRRSDILAHEAMGDTFPDADADEDSLAGELDEAMGSSEWLALTKSPQAFYRGRPSWQGTPGVLRGSRDVLAGLSSSCCKWGCSKSEISSLC [R37E], the “effect of a mutation on the interaction” value was “increasing interaction”.

The variants in a further experiment derive from B1. Conditions: with rl3r2_human RXFP4, Q8TDU9. The source holds these as a separate data set.
In the case of MARYMLLLLLAVWVLTGELWPGAEARAAPYGVRLCGREFIEAVIFTCGGSRWRRSDILAHEAMGDTFPDADADEDSLAGELDEAMGSSEWLALTKSPQAFYRGRPSWQGTPGVLRGSRDVLAGLSSSCCKWGCSKSEISSLC [R41E], the “effect of a mutation on the interaction” value is listed as “decreasing interaction”.

Variants of B1 are the subject of a further experiment. Conditions: with rl3r2_human RXFP4, Q8TDU9. This is another data set of the same source.
Turning to MARYMLLLLLAVWVLTGELWPGAEARAAPYGVRLCGREFIEAVIFTCGGSRWRRSDILAHEAMGDTFPDADADEDSLAGELDEAMGSSEWLALTKSPQAFYRGRPSWQGTPGVLRGSRDVLAGLSSSCCKWGCSKSEISSLC [R41E], the “effect of a mutation on the interaction” value is reported as “increasing interaction”.
